Measured values reported in patent US10400249B2, “HPPD variants and methods of use” (priority 2014, dated 2019).
Where a chain is given by its changes, count along the chain named. Names may count otherwise.

B1: FLP136: PfHPPD variant P215L, E335P, G336F (protein)
chain: MADLYENPMGLMGFEFIEFASPTPGTLEPIFEIMGFTKVATHRSKNVHLYRQGEINLILNNEPNSIASYFAAEHGPSVCGMAFRVKDSQKAYNRALELGAQPIHIDTGPMELNLPAIKGIGGAPLYLIDRFGEGSSIYDIDFVYLEGVERNPVGAGLKVIDHLTHNVYRGRMVYWANFYEKLFNFREARYFDIKGEYTGLTSKAMSAPDGMIRILLNEESSKGAGQIEEFLMQFNGEGIQHVAFLTDDLVKTWDALKKIGMRFMTAPPDTYYEMLEGRLPDHGEPVDQLQARGILLDGSSVEGDKRLLLQIFSETLMGPVFFEFIQRKGDDGFGPFNFKALFESIERDQVRRGVLTAD
modifications: HPPD variant - FLP136
notes: PfHPPD variant P215L, E335P, G336F
B2: FLP202: PfHPPD variant P215L, E335P, G336F, A340E (protein)
chain: B1 chain with A340E
modifications: HPPD variant - FLP202
notes: PfHPPD variant P215L, E335P, G336F, A340E

Columns and labels:
[1] = tested on: T0 soybean plants; experiment: greenhouse spray test of T0 soybean plants for tolerance to mesotrione; format: in vivo; conditions: mesotrione 3X field rate, 316 grams AI per hectare, seven days after treatment
Protocol: T0 soybean plants expressing an HPPD inhibitor tolerant enzyme of the present invention, along with a gene conferring tolerance to glyphosate and a gene conferring tolerance to glufosinate or having a “plant expression cassette”, which includes only an HPPD inhibitor tolerant enzyme of the present invention, were tested for tolerance to mesotrione. Prior greenhouse trials with the transgenic plants, soy transformants were routinely analyzed for the expression and presence of the transgenes using the ELISA protein detection method (see detailed description under item D and H). Only plants recovering in the selection media and having a detectable HPPD transgene protein expression were used for the herbicide tolerance analysis. A DeVries Tracker Sprayer was calibrated prior to each spraying. The chemical formulation used for mesotrione (MST) testing was Callisto® 4 SC formulation supplemented with ammonium sulfate and methylated rape seed oil (Actirob). Spray tests were conducted using 3× the field rate (equivalent to 9 fluid ounce per acre of the same herbicide formulation that containing 40% the active ingredient (AI), mesotrione), which equals 316 grams AI per hectare. Tolerance was evaluated one week after spraying. […] A tolerance rating of “0” was assigned to plants that their shoot apexes, newly emerged trifoliates and some axillary buds were completely bleached. A rating of “1” was assigned to plants having slight tolerance, i.e., the newest plant shoot tissues had some green leaves and are not bleached completely. A rating of “2” was assigned to plants showing moderate tolerance, i.e., more than 50% of the leaf area of the top three trifoliates showing no chlorosis or bleaching damage. A rating of “3” was assigned to plants showing nearly perfect tolerance, i.e., less than 10% of the leaf area showing chlorosis or very slight bleaching.

[2] = tested on: Pseudomonas fluorescens HPPD protein; experiment: OD assay: HPPD activity and pI50 from HPP remaining after derivatisation with DNP; format: biochemical; conditions: for Activity DeltaE/24 min μg Protein: HPPD enzyme activity of the clone; for tolerance (pI50) Cmpd. 2: inhibitor Cmpd. 2; for tolerance (pI50) DKN: inhibitor diketonitrile (DKN), negative log of molar concentration; for tolerance (pI50) MST: inhibitor mesotrione (MST); for tolerance (pI50) TBT: inhibitor tembotrione (TBT)
Summary of the method: (§1)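 Purified Pseudomonas fluorescens HPPD, room temperature. OD assay: 50 mM Tris-HCl pH 7.8, 0.5 mM HPP, 10 mM ascorbate, catalase, 24 min, remaining HPP derivatised with DNP, read at 405 nm, inhibitor 5.0×10^−6 to 5.0×10^−4 M. HGD assay: 200 mM Tris-HCl pH 7.6, 600 μM HPP, 20 μM FeSO4, coupled HGA dioxygenase, initial rates at 318 nm, inhibitor ≤100 μM, time-course gives inhibition type; pI50 from 4-parameter fits.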

[3] = tested on: Pseudomonas fluorescens HPPD protein; experiment: HGD assay: HPPD activity coupled to HGA dioxygenase, pI50 and type of inhibition (time-course); format: biochemical; conditions: for tolerance (pI50) Cmpd. 1: inhibitor Cmpd. 1; for tolerance (pI50) Cmpd. 1 / tolerance (pI50) Cmpd. 2 / tolerance (pI50) Cmpd. 3 / tolerance (pI50) Cmpd. 4 / tolerance (pI50) Cmpd. 5 / tolerance (pI50) DKN / tolerance (pI50) MST / tolerance (pI50) TBT: HGD assay; for tolerance (pI50) Cmpd. 2: inhibitor Cmpd. 2; for tolerance (pI50) Cmpd. 3: inhibitor Cmpd. 3; for tolerance (pI50) Cmpd. 4: inhibitor Cmpd. 4; for tolerance (pI50) Cmpd. 5: inhibitor Cmpd. 5; for tolerance (pI50) DKN: inhibitor diketonitrile (DKN); for tolerance (pI50) MST: inhibitor mesotrione (MST); for tolerance (pI50) TBT: inhibitor tembotrione (TBT)
Summary of the method: as §1

[4] = HT-single plant expression cassette
[5] = HT-triple plant expression cassette

Molecule	Number of T0 soybean plants with herbicide tolerance rating 0 (completely bleached) [1, 4]	Number of T0 soybean plants with herbicide tolerance rating 1 (slight tolerance) [1, 4]	Number of T0 soybean plants with herbicide tolerance rating 2 (moderate tolerance) [1, 4]	Number of T0 soybean plants with herbicide tolerance rating 3 (nearly perfect tolerance) [1, 4]	Number of T0 soybean plants with herbicide tolerance rating 0 (completely bleached) [1, 5]	Number of T0 soybean plants with herbicide tolerance rating 1 (slight tolerance) [1, 5]	Number of T0 soybean plants with herbicide tolerance rating 2 (moderate tolerance) [1, 5]	Number of T0 soybean plants with herbicide tolerance rating 3 (nearly perfect tolerance) [1, 5]	Activity DeltaE/24 min μg Protein [2] [DeltaE/24 min μg Protein]	tolerance (pI50) Cmpd. 2 [2]	tolerance (pI50) DKN [2]	tolerance (pI50) MST [2]	tolerance (pI50) TBT [2]	mechanism of inhibition by diketonitrile (DKN), time-course of inhibition [3]	mechanism of inhibition by mesotrione (MST), time-course of inhibition [3]	mechanism of inhibition by tembotrione (TBT), time-course of inhibition [3]	tolerance (pI50) Cmpd. 1 [3]	tolerance (pI50) Cmpd. 2 [3]	tolerance (pI50) Cmpd. 3 [3]	tolerance (pI50) Cmpd. 4 [3]	further results
B1	4	10	41	20	4	17	33	19	0.09	4.8	2.6	3.3	4.7	fully reversible inhibitors	fully reversible inhibitors	fully reversible inhibitors	5.6	5.9	5.6	6.0	tolerance (pI50) Cmpd. 5 [3]: 5.6; tolerance (pI50) DKN [3]: 4.0; tolerance (pI50) MST [3]: 4.5; tolerance (pI50) TBT [3]: 5.3
B2	2	21	37	18	7	8	10	14	0.09	4.5	<2.5	<2.5	3.6	fully reversible inhibitors	fully reversible inhibitors	fully reversible inhibitors	4.1	4.7	4.3	5.7	tolerance (pI50) Cmpd. 5 [3]: 4.3; tolerance (pI50) DKN [3]: <4; tolerance (pI50) MST [3]: <4; tolerance (pI50) TBT [3]: 4.2
